B1: S. cerevisiae Abp1 (full length; SH3 domain 535-592 mutated) / Hua2 (parent complex)
chain 1: MALEPIDYTTHSREIDAEYLKIVRGSDPDTTWLIISPNAKKEYEPESTGSSFHDFLQLFDETKVQYGLARVSPPGSDVEKIIIIGWCPDSAPLKTRASFAANFAAVANNLFKGYHVQVTARDEDDLDENELLMKISNAAGARYSIQTSSKQQGKASTPPVKKSFTPSKSPAPVSKKEPVKTPSPAPAAKISSRVNDNNDDDDWNEPELKERDFDQAPLKPNQSSYKPIGKIDLQKVIAEEKAKEDPRLVQKPTAAGSKIDPSSDIANLKNESKLKRDSEFNSFLGTTKPPSMTESSLKNDDDKVIKGFRNEKSPAQLWAERKAKQNSGNAETKAEAPKPEVPEDEPEGEPDVKDLKSKFEGLAASEKEEEEMENKFAPPPKKSEPTIISPKPFSKPQEPVKAEEAEQPKTDYKKIGNPLPGMHIEADNEEEPEENDDDWDDDEDEAAQPPLPSRNVASGAPVQKEEPEQEEIAPSLPSRNSIPAPKQEEAPEQAPEEEIEEEAEEAAPQLPSRSSAAPPPPPRRATPEKKPKENPWATAEYDYDAAEDNELTFVENDKIINIEFVDDDWWLGELEKDGSKGLFPSNYVSLGN
chain 2: MQQTKFGKMYLDHDSVVEYSEDEIVEADRITLGYKKRLSMIENQMRHLLEDFSLDVQQIEPILADLQKYYDAFLQLLQKRNKSLQCKRSTHQPVPSPMNSQTSTNAKVNLSGKLMKFQLNSVQKFDEENILRILQNKIEFEHYFQIDKGKKQKVLLLAVYQCLNGPTRLHKVLNIEGIIHNNSIRTILGKQVSSSKWTVFLYDVKLVLLAHRQDVPNLETSKMIVRYGDLFPCALYFKDHTAY

Variants of: B1
Experiment: DHFR protein-fragment complementation in yeast (Abp1-DHFR F[1,2] x partner-DHFR F[3]), deep mutational scanning, second methotrexate selection vs reference; S. cerevisiae, DHFR-PCA selection in liquid with methotrexate at 30 C, two 72 h selections (the score uses the second); reference = the pre-selection culture

Row | Variant | screen value
1 | chain 1 E547Y | -0.85 DMS score: mean over two replicates of log2(f_test/f_ref + 0.5)/ln 2, minus the synonymous-codon median (not a log2 …
2 | chain 1 D548C | 0.141 DMS score: mean over two replicates of log2(f_test/f_ref + 0.5)/ln 2, minus the synonymous-codon median (not a log2 …
3 | chain 1 D548Q | 0.195 DMS score: mean over two replicates of log2(f_test/f_ref + 0.5)/ln 2, minus the synonymous-codon median (not a log2 …
4 | chain 1 D548W | -0.639 DMS score: mean over two replicates of log2(f_test/f_ref + 0.5)/ln 2, minus the synonymous-codon median (not a log2 …
5 | chain 1 D548P | 1.53 DMS score: mean over two replicates of log2(f_test/f_ref + 0.5)/ln 2, minus the synonymous-codon median (not a log2 …
6 | chain 1 D548H | 0.00293 DMS score: mean over two replicates of log2(f_test/f_ref + 0.5)/ln 2, minus the synonymous-codon median (not a log2 …
7 | chain 1 D548G | -0.301 DMS score: mean over two replicates of log2(f_test/f_ref + 0.5)/ln 2, minus the synonymous-codon median (not a log2 …
8 | chain 1 E563S | -0.411 DMS score: mean over two replicates of log2(f_test/f_ref + 0.5)/ln 2, minus the synonymous-codon median (not a log2 …
9 | chain 1 E563K | -0.922 DMS score: mean over two replicates of log2(f_test/f_ref + 0.5)/ln 2, minus the synonymous-codon median (not a log2 …
10 | chain 1 E563H | -1.36 DMS score: mean over two replicates of log2(f_test/f_ref + 0.5)/ln 2, minus the synonymous-codon median (not a log2 …
11 | chain 1 E563Q | -0.159 DMS score: mean over two replicates of log2(f_test/f_ref + 0.5)/ln 2, minus the synonymous-codon median (not a log2 …
12 | chain 1 I560E | -0.924 DMS score: mean over two replicates of log2(f_test/f_ref + 0.5)/ln 2, minus the synonymous-codon median (not a log2 …
13 | chain 1 I560F | -0.852 DMS score: mean over two replicates of log2(f_test/f_ref + 0.5)/ln 2, minus the synonymous-codon median (not a log2 …
14 | chain 1 D566Y | -2.1 DMS score: mean over two replicates of log2(f_test/f_ref + 0.5)/ln 2, minus the synonymous-codon median (not a log2 …
15 | chain 1 D566E | -1.31 DMS score: mean over two replicates of log2(f_test/f_ref + 0.5)/ln 2, minus the synonymous-codon median (not a log2 …
16 | chain 1 D566H | -2.26 DMS score: mean over two replicates of log2(f_test/f_ref + 0.5)/ln 2, minus the synonymous-codon median (not a log2 …
17 | chain 1 D566N | -1.27 DMS score: mean over two replicates of log2(f_test/f_ref + 0.5)/ln 2, minus the synonymous-codon median (not a log2 …

Row | Variant | screen value
18 | chain 1 F564Y | 0.127 DMS score: mean over two replicates of log2(f_test/f_ref + 0.5)/ln 2, minus the synonymous-codon median (not a log2 …
19 | chain 1 A537C | 0.422 DMS score: mean over two replicates of log2(f_test/f_ref + 0.5)/ln 2, minus the synonymous-codon median (not a log2 …
20 | chain 1 A545G | -0.421 DMS score: mean over two replicates of log2(f_test/f_ref + 0.5)/ln 2, minus the synonymous-codon median (not a log2 …
21 | chain 1 D577C | -0.926 DMS score: mean over two replicates of log2(f_test/f_ref + 0.5)/ln 2, minus the synonymous-codon median (not a log2 …
22 | chain 1 D577S | 0.3 DMS score: mean over two replicates of log2(f_test/f_ref + 0.5)/ln 2, minus the synonymous-codon median (not a log2 …
23 | chain 1 D577T | -0.226 DMS score: mean over two replicates of log2(f_test/f_ref + 0.5)/ln 2, minus the synonymous-codon median (not a log2 …
24 | chain 1 D568V | -2.62 DMS score: mean over two replicates of log2(f_test/f_ref + 0.5)/ln 2, minus the synonymous-codon median (not a log2 …
25 | chain 1 D568W | -2.95 DMS score: mean over two replicates of log2(f_test/f_ref + 0.5)/ln 2, minus the synonymous-codon median (not a log2 …
26 | chain 1 D568E | -1.5 DMS score: mean over two replicates of log2(f_test/f_ref + 0.5)/ln 2, minus the synonymous-codon median (not a log2 …
27 | chain 1 I559V | -0.155 DMS score: mean over two replicates of log2(f_test/f_ref + 0.5)/ln 2, minus the synonymous-codon median (not a log2 …
28 | chain 1 G578M | -0.96 DMS score: mean over two replicates of log2(f_test/f_ref + 0.5)/ln 2, minus the synonymous-codon median (not a log2 …
29 | chain 1 G578K | -0.619 DMS score: mean over two replicates of log2(f_test/f_ref + 0.5)/ln 2, minus the synonymous-codon median (not a log2 …
30 | chain 1 E575Y | -0.704 DMS score: mean over two replicates of log2(f_test/f_ref + 0.5)/ln 2, minus the synonymous-codon median (not a log2 …
31 | chain 1 E575H | 0.233 DMS score: mean over two replicates of log2(f_test/f_ref + 0.5)/ln 2, minus the synonymous-codon median (not a log2 …
32 | chain 1 E575K | 0.0377 DMS score: mean over two replicates of log2(f_test/f_ref + 0.5)/ln 2, minus the synonymous-codon median (not a log2 …
33 | chain 1 E575D | -0.0843 DMS score: mean over two replicates of log2(f_test/f_ref + 0.5)/ln 2, minus the synonymous-codon median (not a log2 …

Second part, the variant after the results:

Row | screen value | Variant
34 | 0.524 DMS score: mean over two replicates of log2(f_test/f_ref + 0.5)/ln 2, minus the synonymous-codon median (not a log2 … | chain 1 T538V
35 | -0.148 DMS score: mean over two replicates of log2(f_test/f_ref + 0.5)/ln 2, minus the synonymous-codon median (not a log2 … | chain 1 T538Y
36 | 0.298 DMS score: mean over two replicates of log2(f_test/f_ref + 0.5)/ln 2, minus the synonymous-codon median (not a log2 … | chain 1 T538R
37 | -0.268 DMS score: mean over two replicates of log2(f_test/f_ref + 0.5)/ln 2, minus the synonymous-codon median (not a log2 … | chain 1 T538C
38 | -0.703 DMS score: mean over two replicates of log2(f_test/f_ref + 0.5)/ln 2, minus the synonymous-codon median (not a log2 … | chain 1 T538K
39 | 0.593 DMS score: mean over two replicates of log2(f_test/f_ref + 0.5)/ln 2, minus the synonymous-codon median (not a log2 … | chain 1 S589V
40 | 0.37 DMS score: mean over two replicates of log2(f_test/f_ref + 0.5)/ln 2, minus the synonymous-codon median (not a log2 … | chain 1 S589K
41 | -0.0692 DMS score: mean over two replicates of log2(f_test/f_ref + 0.5)/ln 2, minus the synonymous-codon median (not a log2 … | chain 1 S589M
42 | 1.15 DMS score: mean over two replicates of log2(f_test/f_ref + 0.5)/ln 2, minus the synonymous-codon median (not a log2 … | chain 1 S589E
43 | 0.074 DMS score: mean over two replicates of log2(f_test/f_ref + 0.5)/ln 2, minus the synonymous-codon median (not a log2 … | chain 1 S589A
44 | 0.427 DMS score: mean over two replicates of log2(f_test/f_ref + 0.5)/ln 2, minus the synonymous-codon median (not a log2 … | chain 1 I560K
45 | 0.102 DMS score: mean over two replicates of log2(f_test/f_ref + 0.5)/ln 2, minus the synonymous-codon median (not a log2 … | chain 1 I560R
46 | -0.415 DMS score: mean over two replicates of log2(f_test/f_ref + 0.5)/ln 2, minus the synonymous-codon median (not a log2 … | chain 1 I560T
47 | -0.0573 DMS score: mean over two replicates of log2(f_test/f_ref + 0.5)/ln 2, minus the synonymous-codon median (not a log2 … | chain 1 N586P
48 | -1.55 DMS score: mean over two replicates of log2(f_test/f_ref + 0.5)/ln 2, minus the synonymous-codon median (not a log2 … | chain 1 N586K
49 | -1.53 DMS score: mean over two replicates of log2(f_test/f_ref + 0.5)/ln 2, minus the synonymous-codon median (not a log2 … | chain 1 N586E
50 | -0.863 DMS score: mean over two replicates of log2(f_test/f_ref + 0.5)/ln 2, minus the synonymous-codon median (not a log2 … | chain 1 N586L
51 | 0.632 DMS score: mean over two replicates of log2(f_test/f_ref + 0.5)/ln 2, minus the synonymous-codon median (not a log2 … | chain 1 N586I
52 | -1.55 DMS score: mean over two replicates of log2(f_test/f_ref + 0.5)/ln 2, minus the synonymous-codon median (not a log2 … | chain 1 N586H
53 | 2.45 DMS score: mean over two replicates of log2(f_test/f_ref + 0.5)/ln 2, minus the synonymous-codon median (not a log2 … | chain 1 N586M
54 | -2.34 DMS score: mean over two replicates of log2(f_test/f_ref + 0.5)/ln 2, minus the synonymous-codon median (not a log2 … | chain 1 L582M

Row | screen value | Variant
55 | 0.039 DMS score: mean over two replicates of log2(f_test/f_ref + 0.5)/ln 2, minus the synonymous-codon median (not a log2 … | chain 1 L582F
56 | 0.578 DMS score: mean over two replicates of log2(f_test/f_ref + 0.5)/ln 2, minus the synonymous-codon median (not a log2 … | chain 1 V565T
57 | -0.496 DMS score: mean over two replicates of log2(f_test/f_ref + 0.5)/ln 2, minus the synonymous-codon median (not a log2 … | chain 1 K576C
58 | 0.467 DMS score: mean over two replicates of log2(f_test/f_ref + 0.5)/ln 2, minus the synonymous-codon median (not a log2 … | chain 1 K576R
59 | -0.947 DMS score: mean over two replicates of log2(f_test/f_ref + 0.5)/ln 2, minus the synonymous-codon median (not a log2 … | chain 1 K576E
60 | -0.373 DMS score: mean over two replicates of log2(f_test/f_ref + 0.5)/ln 2, minus the synonymous-codon median (not a log2 … | chain 1 K576A
61 | 0.556 DMS score: mean over two replicates of log2(f_test/f_ref + 0.5)/ln 2, minus the synonymous-codon median (not a log2 … | chain 1 S579T
62 | -0.235 DMS score: mean over two replicates of log2(f_test/f_ref + 0.5)/ln 2, minus the synonymous-codon median (not a log2 … | chain 1 S579E
63 | -0.943 DMS score: mean over two replicates of log2(f_test/f_ref + 0.5)/ln 2, minus the synonymous-codon median (not a log2 … | chain 1 S579L
64 | -0.58 DMS score: mean over two replicates of log2(f_test/f_ref + 0.5)/ln 2, minus the synonymous-codon median (not a log2 … | chain 1 S579M
65 | -2.24 DMS score: mean over two replicates of log2(f_test/f_ref + 0.5)/ln 2, minus the synonymous-codon median (not a log2 … | chain 1 Y587S
66 | -1.01 DMS score: mean over two replicates of log2(f_test/f_ref + 0.5)/ln 2, minus the synonymous-codon median (not a log2 … | chain 1 Y587C
67 | 1.47 DMS score: mean over two replicates of log2(f_test/f_ref + 0.5)/ln 2, minus the synonymous-codon median (not a log2 … | chain 1 Y587L
68 | -2.96 DMS score: mean over two replicates of log2(f_test/f_ref + 0.5)/ln 2, minus the synonymous-codon median (not a log2 … | chain 1 Y587K
69 | -2.4 DMS score: mean over two replicates of log2(f_test/f_ref + 0.5)/ln 2, minus the synonymous-codon median (not a log2 … | chain 1 Y587T
70 | -0.374 DMS score: mean over two replicates of log2(f_test/f_ref + 0.5)/ln 2, minus the synonymous-codon median (not a log2 … | chain 1 T552N
71 | -0.255 DMS score: mean over two replicates of log2(f_test/f_ref + 0.5)/ln 2, minus the synonymous-codon median (not a log2 … | chain 1 T552G
72 | 0.616 DMS score: mean over two replicates of log2(f_test/f_ref + 0.5)/ln 2, minus the synonymous-codon median (not a log2 … | chain 1 T552S
73 | -0.688 DMS score: mean over two replicates of log2(f_test/f_ref + 0.5)/ln 2, minus the synonymous-codon median (not a log2 … | chain 1 T552D
74 | -1.03 DMS score: mean over two replicates of log2(f_test/f_ref + 0.5)/ln 2, minus the synonymous-codon median (not a log2 … | chain 1 T552H
75 | 0.515 DMS score: mean over two replicates of log2(f_test/f_ref + 0.5)/ln 2, minus the synonymous-codon median (not a log2 … | chain 1 N592R
